Values belong to the molecule of their own block, whether it stands above or below them. Ends that are not written are not given here.
Legend:
[1] = test system: bone-marrow derived macrophages (BMDMs) from Per2::Luc C57BL/6J mice; test: Phagocytosis assay of HiLyte 488 labeled amyloid-beta by serum-shock synchronized macrophages (with or without heparinases); assay type: cell-based, mouse; settings: for circadian oscillation of the peptide's own phagocytosis (in words): HiLyte 488 labeled peptide, 2 h uptake, mAβ42 every 4 h for 24 h (ECHO), Aβ40 at PS20 and PS32; for Hedges' g, phagocytosis PS20 vs PS32 within the same treatment: for heparinases: Aβ42 phagocytosis in their presence; for Hedges' g, phagocytosis vs Aβ42-alone at PS20 (nadir, CT8) / Hedges' g, phagocytosis vs Aβ42-alone at PS32 (zenith, CT20): >100 cells per replicate, g >0.2 small, >0.5 medium, >0.8 large effect; for effect of heparinase treatment on the daily oscillation of Aβ42 phagocytosis (in words): heparinase added immediately before HiLyte 488 Aβ42, cells sampled 2 h later
Text: To do so, we modified a previously-employed BMDM phagocytosis assay (as BMDMs are both models for activated microglia and are known to migrate into the brain in late-stage AD), to use fluorescently labeled Aβ42 to determine if the phagocytosis of Aβ42 is controlled by the circadian clock. In brief, BMDMs were derived from bone marrow progenitor cells extracted from Per2::Luc C57BL/6J mice and differentiated with recombinant Macrophage Colony Stimulating Factor (M-CSF), with flow cytometry confirming complete differentiation into naïve peripheral macrophages. […] 16 h after synchronization, confluent dishes of these BMDMs were treated HiLyte 488 labeled Aβ42 (Anaspec), in triplicate, every 4 h over a 24 h circadian period. BMDMs treated with labeled Aβ42 were harvested two hours after Aβ42 treatment and fixed with formalin. Total cellular fluorescence levels were analyzed with fluorescent confocal microscopy and quantified using a custom cell measurement MATLAB script (Fig 1A, S2 Fig, and S1 Table).
Bone marrow was harvested from the femurs and tibias of one 3–6-month-old male mouse using a 26 g needle and syringe filled with DMEM supplemented media. ACK lysing buffer (Lonza 10-548E) was used to lyse red blood cells in order to prevent erythrocyte contamination. Filtered bone marrow cells were counted using a BioRad TC20 automated cell counter and plated on 35 mm cell culture plates at a density of 1 x 10^6 in macrophage differentiation media. After three days of incubation at 37°C with 5% CO2, fresh macrophage differentiation media was added. After another 3 days of incubation, the cells were washed with 2 ml warm PBS per plate, and replaced with macrophage assay media, and the cultures were incubated for 24 h. Macrophage cultures were then washed with 2 ml warm PBS, macrophage serum starvation media was added, and the plates were incubated in the starve media for 24 h. Next, macrophage serum starvation media was removed, and macrophage serum shock media was added, and cultures were incubated for 2 h. Macrophage cultures were then washed with 2 ml warmed PBS each and macrophage media Luciferin was added. Cultures were sealed with grease and glass cover slips and placed in a LumiCycle 32 luminometer (Actimetrics) to confirm synchronization of circadian rhythmicity. Assays began 16 h post serum shock to allow the synchronized cells to return to homeostasis.
All amyloid-beta isoforms were reconstituted 24 h or less before experimentation in water and PBS (1:1) and were dissolved using sonication for approximately 30 min. The reconstituted Aβ was pooled from individual vials before aliquoting for each experimental replicate. The aliquots were then flash frozen and stored at -80°C until 20 min before use.
Using synchronized macrophages (as described above) starting at PS16 macrophages were treated every 4 h for 24 h, in triplicate, with 115 μl (0.25 mg/ml) of fluorescently labeled amyloid-beta (PS16, PS20, PS24, PS28, PS32, PS36, and PS40) and heparinases at the reported activity levels (S5 Table). The treated macrophages were then incubated at 37°C for 2 h. Following the two-hour incubation, the media was aspirated, and the macrophages were washed with 2ml of PBS three times before Cell Stripper (Corning 25-056-CI) was added to the cultures, which were then incubated at 37°C for 3 min. Detached macrophages were next centrifuged at 400 g for 5 min, the supernatant was aspirated, and the macrophage cell pellets were resuspended in formalin and incubated in the dark at room temperature for 30 min. Macrophages were then centrifuged for 5 min at 400 g, the supernatant was aspirated, and the macrophages were resuspended in 250 μL of PBS and kept at 4°C. The fixed macrophages were imaged using fluorescent microscopy within a week of the experiment. All fluorescent images from the phagocytosis experiments are available on Mendeley Data (doi: 10.17632/zrmgjyggmr.1). […]

[2] = Heparinase enzymatic activity; assay type: biochemical
Text: We hypothesized that the rhythmic oscillation of HSPGs may inhibit the phagocytosis of Aβ42 due to the antiphase relationship between Aβ42 phagocytosis and PG levels and the published repressive effect of HSPGs on Aβ42 phagocytosis (Figs 1 and 4). To validate this hypothesis, we individually purified Heparinases I, II, and III, removed endotoxins, and confirmed Heparinase enzymatic activity (see Methods) (S5 Table). Heparinase I cleaves between D-glucosamine and L-iduronic acid in highly sulfated regions, heparinase III cleaves between N-acetyl-D-glucosamine in low or unsulfated regions, and heparinase II cleaves in both positions. We then extracted, derived, synchronized, and exposed BMDMs to fluorescently-labeled Aβ42 every 4 h over one circadian day. We next added a mixture of Heparinase I, II, and III to cleave all forms of HSPGs, with each biological replicate receiving a decreasing concentration of total heparinases (Replicate 1: 0.9577mg/ml of total heparinases, Replicate 2: 0.5071 mg/ml of total heparinases, Replicate 3: 0.2794 mg/ml of total heparinases) of the mixture of the three heparinases (see S5 Table). Immediately following the addition of the heparinases, we added fluorescently labeled Aβ42 and sampled Aβ42 levels inside the cell 2 hours later. By using fluorescently labeled Aβ42, we controlled for endogenously generated Aβ, which can be affected by HSPG expression through its interaction with BACE1 processing of the amyloid precursor protein [67].
Heparinases were prepared as has been previously reported. All heparinases used were purified away from endotoxins using an Endotoxin Removal Kit from GenScript (L00338).

[3] = log10 mean cell fluorescence, triplicate
[4] = heparinase stock of the 'All Hep' experiment
[5] = heparinase stock of the 'Hep I only' / 'Hep III only' experiments

Molecule: Amyloid-beta 40 labeled with HiLyte 488 [Aβ40]
- circadian oscillation of the peptide's own phagocytosis (in words) ([1]; triplicate): no oscillation in Aβ40 phagocytosis
- Hedges' g, total phagocytosis of Aβ40 vs Aβ42 at PS20 and PS32 [1, 3]: 0.2752
- Hedges' g, phagocytosis PS20 vs PS32 within the same treatment [1, 3]: 0.06734

Molecule: Mouse amyloid-beta 42 labeled with HiLyte 488 (DAEFGHDSGFEVRHQKLVFFAEDVGSNKGAIIGLMVGGVVIA; also: HiLyte 488 label, site not given here; UniProt P12023 672-713, looked up) [mAβ42, custom mouse Aβ42 labeled with HiLyte 488 from Anaspec (SQ-ANCPXXXX)]
- Oscillation Type ([1]; ECHO v4.1 fit, average of 3 replicates, log10 mean cell fluorescence, 2 h uptake every 4 h PS16-PS40, WT Per2::Luc BMDMs): Harmonic
- circadian oscillation of the peptide's own phagocytosis (in words) ([1]; triplicate): did not have a circadian oscillation
- phagocytosis compared to human Aβ42 (in words) ([1]; every 4 h for 24 h, triplicate): increased phagocytosis compared to human Aβ42 phagocytosis at all sampled times
- Hedges' g, phagocytosis vs Aβ42-alone at PS20 (nadir, CT8) [1, 3]: 3.032
- Hedges' g, phagocytosis vs Aβ42-alone at PS32 (zenith, CT20) [1, 3]: 2.021

B2: Heparinase I: Recombinant Flavobacterial heparin lyase I; cleaves in highly sulfated regions of HSPGs (protein, UniProt Q05819 22-384, looked up)
Heparin lyase I: QQKKSGNIPYRVNVQADSAKQKAIIDNKWVAVGINKPYALQYDDKLRFNGKPSYRFELKAEDNSLEGYAAGETKGRTELSYSYATTNDFKKFPPSVYQNAQKLKTVYHYGKGICEQGSSRSYTFSVYIPSSFPDNATTIFAQWHGAPSRTLVATPEGEIKTLSIEEFLALYDRMIFKKNIAHDKVEKKDKDGKITYVAGKPNGWKVEQGGYPTLAFGFSKGYFYIKANSDRQWLTDKADRNNANPENSEVMKPYSSEYKTSTIAYKMPFAQFPKDCWITFDVAIDWTKYGKEANTILKPGKLDVMMTYTKNKKPQKAHIVNQQEILIGRNDDDGYYFKFGIYRVGNSTVPVTYNLSGYSETAR
- effect of heparinase treatment on the daily oscillation of Aβ42 phagocytosis (in words) ([1]; triplicate): loss of daily oscillation
- Hedges' g, phagocytosis vs Aβ42-alone at PS20 (nadir, CT8) [1, 3]: 0.1328
- Hedges' g, phagocytosis vs Aβ42-alone at PS32 (zenith, CT20) [1, 3]: 0.635
- Hedges' g, phagocytosis PS20 vs PS32 within the same treatment [1, 3]: 0.1017
- Activities (U/ml) [2, 4]: 0.034 U/ml
- Activities (U/ml) [2, 5]: 0.332 U/ml

Continued, in another order:

- Activities (U/ml) [2, 4]: 1.048 U/ml
B1: Heparinase II: Recombinant Flavobacterial heparin lyase II; cleaves in both high- and low-sulfated positions (protein, UniProt C6XZB6 26-772, looked up)
Heparin and heparin-sulfate …: QTKADVVWKDVDGVSMPIPPKTHPRLYLREQQVPDLKNRMNDPKLKKVWADMIKMQEDWKPADIPEVKDFRFYFNQKGLTVRVELMALNYLMTKDPKVGREAITSIIDTLETATFKPAGDISRGIGLFMVTGAIVYDWCYDQLKPEEKTRFVKAFVRLAKMLECGYPPVKDKSIVGHASEWMIMRDLLSVGIAIYDEFPEMYNLAAGRFFKEHLVARNWFYPSHNYHQGMSYLNVRFTNDLFALWILDRMGAGNVFNPGQQFILYDAIYKRRPDGQILAGGDVDYSRKKPKYYTMPALLAGSYYKDEYLNYEFLKDPNVEPHCKLFEFLWRDTQLGSRKPDDLPLSRYSGSPFGWMIARTGWGPESVIAEMKVNEYSFLNHQHQDAGAFQIYYKGPLAIDAGSYTGSSGGYNSPHNKNFFKRTIAHNSLLIYDPKETFSSSGYGGSDHTDFAANDGGQRLPGKGWIAPRDLKEMLAGDFRTGKILAQGFGPDNQTPDYTYLKGDITAAYSAKVKEVKRSFLFLNLKDAKVPAAMIVFDKVVASNPDFKKFWLLHSIEQPEIKGNQITIKRTKNGDSGMLVNTALLPDAANSNITSIGGKGKDFWVFGTNYTNDPKPGTDEALERGEWRVEITPKKAAAEDYYLNVIQIADNTQQKLHEVKRIDGDKVVGVQLADRIVTFSKTSETVDRPFGFSVVGKGTFKFVMTDLLPGTWQVLKDGKILYPALSAKGDDGALYFEGTEGTYRFLR

- Activities (U/ml) [2, 4]: 20.212 U/ml
- Activities (U/ml) [2, 5]: 5.305 U/ml
B3: Heparinase III: Recombinant Flavobacterial heparin lyase III; cleaves in low or unsulfated regions of HSPGs (protein, UniProt Q59289 25-659, looked up)
Heparin-sulfate lyase: QSSSITRKDFDHINLEYSGLEKVNKAVAAGNYDDAAKALLAYYREKSKAREPDFSNAEKPADIRQPIDKVTREMADKALVHQFQPHKGYGYFDYGKDINWQMWPVKDNEVRWQLHRVKWWQAMALVYHATGDEKYAREWVYQYSDWARKNPLGLSQDNDKFVWRPLEVSDRVQSLPPTFSLFVNSPAFTPAFLMEFLNSYHQQADYLSTHYAEQGNHRLFEAQRNLFAGVSFPEFKDSPRWRQTGISVLNTEIKKQVYADGMQFELSPIYHVAAIDIFLKAYGSAKRVNLEKEFPQSYVQTVENMIMALISISLPDYNTPMFGDSWITDKNFRMAQFASWARVFPANQAIKYFATDGKQGKAPNFLSKALSNAGFYTFRSGWDKNATVMVLKASPPGEFHAQPDNGTFELFIKGRNFTPDAGVFVYSGDEAIMKLRNWYRQTRIHSTLTLDNQNMVITKARQNKWETGNNLDVLTYTNPSYPNLDHQRSVLFINKKYFLVIDRAIGEATGNLGVHWQLKEDSNPVFDKTKNRVYTTYRDGNNLMIQSLNADRTSLNEEEGKVSYVYNKELKRPAFVFEKPKKNAGTQNFVSIVYPYDGQKAPEISIRENKGNDFEKGKLNLTLTINGKQQLVLVP
- effect of heparinase treatment on the daily oscillation of Aβ42 phagocytosis (in words) ([1]; triplicate): oscillations in Aβ42 phagocytosis were also ablated
- Hedges' g, phagocytosis vs Aβ42-alone at PS20 (nadir, CT8) [1, 3]: 0.5409
- Hedges' g, phagocytosis vs Aβ42-alone at PS32 (zenith, CT20) [1, 3]: 0.22
- Hedges' g, phagocytosis PS20 vs PS32 within the same treatment [1, 3]: 0.1663
